From paper PMC3176798, “Movement Protein Pns6 of Rice dwarf phytoreovirus Has Both ATPase and RNA Binding Activities” come the findings set out here.

Series [1] concerns the target T1, His-Pns6 (Rice dwarf phytoreovirus (RDV), UniProt Q85438 1-509).
T1 sequence: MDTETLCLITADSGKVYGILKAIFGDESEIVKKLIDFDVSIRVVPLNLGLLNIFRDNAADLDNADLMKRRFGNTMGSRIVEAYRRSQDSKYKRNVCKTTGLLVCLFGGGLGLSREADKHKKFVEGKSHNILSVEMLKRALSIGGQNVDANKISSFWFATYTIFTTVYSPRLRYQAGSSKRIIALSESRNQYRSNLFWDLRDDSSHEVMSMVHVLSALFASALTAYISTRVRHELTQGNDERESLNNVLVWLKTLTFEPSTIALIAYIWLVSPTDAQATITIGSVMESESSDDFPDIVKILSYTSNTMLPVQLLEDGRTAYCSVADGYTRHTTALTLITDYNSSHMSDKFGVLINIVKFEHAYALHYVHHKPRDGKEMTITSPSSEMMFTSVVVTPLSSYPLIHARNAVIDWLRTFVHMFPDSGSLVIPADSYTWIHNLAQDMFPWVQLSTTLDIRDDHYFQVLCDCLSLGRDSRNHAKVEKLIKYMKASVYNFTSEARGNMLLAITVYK
Put plainly: competition EMSA; vs labeled S3-5a; less than sense strands; EMSA: 50 mM Tris-HCl pH 7.5, 50 mM NaCl, 10% glycerol, 20 min on ice; northwestern: 20 mM Tris-HCl pH 7.5, 50 mM NaCl, 0.1% Triton X-100, 1 mM DTT, 1 mM EDTA, 0.02% Ficoll 400 (renaturation and washes at 4 C), UV crosslinking after washing. The following applies: protein: recombinant; tags: His (pET28a); label: 32P 5' end when probe.

Series [2] addresses T1, His-Pns6. In words: competition EMSA; vs labeled S3-5a; highest; EMSA: 50 mM Tris-HCl pH 7.5, 50 mM NaCl, 10% glycerol, 20 min on ice; northwestern: 20 mM Tris-HCl pH 7.5, 50 mM NaCl, 0.1% Triton X-100, 1 mM DTT, 1 mM EDTA, 0.02% Ficoll 400 (renaturation and washes at 4 C), UV crosslinking after washing. Conditions: protein: recombinant; tags: His (pET28a); label: 32P 5' end when probe. For orientation: Mobility shift assays separate free from complexed probe on a gel.

The target of series [3] is T1, His-Pns6. In words: competition EMSA; vs labeled S3-5; equal to other dsRNAs; EMSA: 50 mM Tris-HCl pH 7.5, 50 mM NaCl, 10% glycerol, 20 min on ice; northwestern: 20 mM Tris-HCl pH 7.5, 50 mM NaCl, 0.1% Triton X-100, 1 mM DTT, 1 mM EDTA, 0.02% Ficoll 400 (renaturation and washes at 4 C), UV crosslinking after washing. The following applies: protein: recombinant, tags: His (pET28a), blunt.

The target in series [4] is T1, His-Pns6. Put plainly: competition EMSA; vs labeled S3-5a; higher than antisense strands; EMSA: 50 mM Tris-HCl pH 7.5, 50 mM NaCl, 10% glycerol, 20 min on ice; northwestern: 20 mM Tris-HCl pH 7.5, 50 mM NaCl, 0.1% Triton X-100, 1 mM DTT, 1 mM EDTA, 0.02% Ficoll 400 (renaturation and washes at 4 C), UV crosslinking after washing. Conditions: protein: recombinant; tags: His (pET28a); label: 32P 5' end when probe.

Series [5] has as its target T1, His-Pns6. Put plainly: northwestern blot; EMSA: 50 mM Tris-HCl pH 7.5, 50 mM NaCl, 10% glycerol, 20 min on ice; northwestern: 20 mM Tris-HCl pH 7.5, 50 mM NaCl, 0.1% Triton X-100, 1 mM DTT, 1 mM EDTA, 0.02% Ficoll 400 (renaturation and washes at 4 C), UV crosslinking after washing. Conditions: protein: recombinant; tags: His (pET28a); label: 32P 5' end when probe; 3' overhang 2 nt (UU) on both strands, 19 bp.

As for AUUGUUCGCUCGAUUUUGCC (ssRNA) [S3-5a], the binding result with His-Pns6 [1] is given as “binds”.

As to AUCAGGAACCAAGCAAAACA (ssRNA) [S3-3a], the binding result in the series with His-Pns6 [1] was “binds”.

As to GGCAAAAUCGAGCGAACAAU (ssRNA) [S3-5s], in the series with His-Pns6 [2], the binding result was “binds”.

B1: S3m (dsRNA)
RNA 1: CAAUCAAUAUGCUCGCCCCA
RNA 2: UGGGGCGAGCAUAUUGAUUG
Turning to B1, in the series with His-Pns6 [3], the binding result was “binds”.

As for UGUUUUGCUUGGUUCCUGAU (ssRNA) [S3-3s], the binding result in the series with His-Pns6 [4] is on record as “binds”.

B2: dsR (dsRNA)
RNA 1: UUCUCCGAACGUGUCACGUUU
RNA 2: ACGUGACACGUUCGGAGAAUU
For the molecule B2, the binding result with His-Pns6 [5] is recorded as “binds”.

B3: S3-5 (dsRNA)
RNA 1: GGCAAAAUCGAGCGAACAAU
RNA 2: AUUGUUCGCUCGAUUUUGCC
For B3, the binding result with His-Pns6 [3] (label: 32P 5' end when probe) is recorded as “binds”.

B4: S3-3 (dsRNA)
RNA 1: UGUUUUGCUUGGUUCCUGAU
RNA 2: AUCAGGAACCAAGCAAAACA
Take B4: in the series with His-Pns6 [3], the binding result is recorded as “binds”.
